# Reference: article PMC3810402
# T1: MDMX (synMDMX) 24-108 (Homo sapiens), O15151
# T1 chain: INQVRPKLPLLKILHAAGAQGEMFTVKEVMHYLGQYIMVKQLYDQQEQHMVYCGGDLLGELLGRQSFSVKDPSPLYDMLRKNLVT
# What was measured:
# Conditions in all cases: modification not given
# [1] = target: T1, MDMX (synMDMX) 24-108 (Homo sapiens), …; experiment: SPR
# [2] = target: MDM2 (synMDM2) 25-109 (Homo sapiens), Q00987; experiment: SPR
# [3] = target: MDM2 (synMDM2) 25-109 (Homo sapiens), Q00987; experiment: SPR; remark: listed apart in the source
# [4] = target: MDM2 (synMDM2) 25-109 (Homo sapiens), Q00987; experiment: SPR direct
# Sequence of MDM2 (synMDM2) 25-109 (Homo sapiens), Q00987 (Q00987 25-109): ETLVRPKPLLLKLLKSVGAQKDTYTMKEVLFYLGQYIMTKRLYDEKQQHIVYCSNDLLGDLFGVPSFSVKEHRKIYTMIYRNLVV
Binder,Kd [1],Kd [2],Kd [3],Kd [4]
CYSFDCLWKCLAMGFSSGKCINSKCKC [stoppin-1],994 nM,790 nM,320 nM,–
CYSFDCLWKCLAMGFRRGKCRRRKCKC [stoppin-2],–,–,–,493 nM
